The values that follow come from article PMC3412936 (Journal of molecular biology, 2012).

The term Kd denotes the free concentration of one partner at which half of the binding sites on the other are occupied at equilibrium, for simple one-to-one binding. Read a low Kd as tighter binding. One may read the stoichiometry N as the number of molecules, sites or subunits per partner or assembly.

What all share (assay): ITC
For orientation: Isothermal titration calorimetry measures the heat released or taken up as one component is titrated into another.

In assay [1] the target is T1, WW1 domain (residues 16-50) of human WWOX (human, UniProt Q9NZC7 16-50).
T1 chain (looked up): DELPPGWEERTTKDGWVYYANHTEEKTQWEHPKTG

For assay [2], the target named is engineered WW2_RW domain of WWOX (E66R/Y85W double-mutant of WW2 domain) (human, UniProt Q9NZC7 57-91, E66R | Y85W).
For assay [3], the target named is T2, WW1-WW2 tandem domains (residues 16-91) of human WWOX (human, UniProt Q9NZC7 16-91).
T2 sequence (looked up): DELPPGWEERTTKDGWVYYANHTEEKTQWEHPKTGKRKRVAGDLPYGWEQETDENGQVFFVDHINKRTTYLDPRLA

The target in assay [4] is T3, engineered WW1-WW2rw tandem domains of WWOX (human, UniProt Q9NZC7 16-91, E66R | Y85W).
T3 sequence (looked up): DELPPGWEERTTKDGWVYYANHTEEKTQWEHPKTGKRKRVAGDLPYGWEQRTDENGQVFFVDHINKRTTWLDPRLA

Turning to STFKPPAYEDVV [WBP1_PY1 peptide (12-mer spanning the PY1 PPXY motif of human WBP1)], the Kd is above 1000 µM in assay [1], 80 µM in assay [2], above 1000 µM in assay [3] and 103 µM in assay [4]. Besides, the figures for the dH in assay [2] and in assay [4] were -5.59 kcal/mol and -8.66 kcal/mol, respectively. Also, the “stoichiometry N” value in assay [4] stood at 1.07.

As for VQPPPPPYPGPM [WBP2_PY2 peptide (12-mer spanning the PY2 PPXY motif of human WBP2)], the Kd in assay [1] was above 1000 µM; in assay [2], 69 µM; in assay [3], 326 µM; in assay [4], 86 µM. Also, the dH in assay [2] is -8.44 kcal/mol; in assay [3] it was -3.36 kcal/mol; in assay [4] it was -11.5 kcal/mol. In addition, the “stoichiometry N” value in assay [3] was 1.03; in assay [4], 1.02.

For PGTPPPPYTVAP [WBP1_PY2 peptide (12-mer spanning the PY2 PPXY motif of human WBP1)], the dissociation constant Kd was 366 µM in assay [1], 123 µM in assay [2], 132 µM in assay [3] and 101 µM in assay [4]. In addition, the dH was -16.1 kcal/mol in assay [1], -12.1 kcal/mol in assay [2], -9.85 kcal/mol in assay [3] and -10.1 kcal/mol in assay [4]. Further, the “stoichiometry N” value in assay [3] amounted to 0.99; in assay [4], 2.02.
